Test results as given in US8927207B2, “miRNAs as therapeutic targets in cancer” (Research Foundation of State University of New York, priority 2008, dated 2015).
Read-outs that look alike come from different tables or passages of the source.

Legend:
[1] = tested on: conserved p53-binding promoter of miR-192; test: luciferase reporter assay of p53-binding promoter of miR-192; type: cell-based, human; conditions: HCT (wt-p53) cells, 5 μmol/L for 24 hours
From the text: Luciferase reporter assay was used to determine the transcriptional activation of conserved p53-binding promoter of miR-192. pGL3-Basic promoterless luciferase reporter plasmid (Promega) was used in this study. Double-stranded DNA oligonucleotides of conserved p53-binding sequence of miR-192 was synthesized and annealed and cloned upstream of firefly luciferase in the pGL3-Basic plasmid (miR-192-pGL3). […] Control vector and miR-192-pGL3 vector were transfected into both HCT-116 (wt-p53) and HCT-116 (null-p53) cells. To further induce p53 expression, transfected HCT-116 (wt-p53) and HCT-116 (null-p53) cells were also treated with 5 μmol/L 5-fluorouracil for 24 hours. The promoter activity of each construct was quantified by dual luciferase assay (Promega) 24 hours after transfection.

miR-192 = test: real time qRT-PCR of endogenous mature miR-192 after MTX treatment; type: cell-based, human
Experimental: Thereafter, the expression of endogenous mature miR-192 was analyzed by real time qRT-PCT analysis using an internal control RNU6B as an internal standard for normalization. The cDNA synthesis was carried out with the High Capacity cDNA synthesis kit (Applied Biosystems) using 10 ng of total RNA as template. The miRNA sequence-specific RT-PCR primers for miR-192 and endogenous control RNU6B were purchased from Ambion. Real-time quantitative reverse transcription-PCR (qRT-PCR) analysis was carried out using Applied Biosystems 7500 Real-Time PCR System. The PCR master mix containing TaqMan 2× Universal PCR Master Mix (No Amperase UNG), 10× TaqMan assay and RT products in 20 μl volume were processed as follows: 95° C. for 10 minutes, and then 95° C. for 15 seconds, 60° C. for 60 seconds for up to 40 cycles (n=3). Signal was collected at the endpoint of every cycle. The gene expression ΔCT values of miRNAs from each sample were calculated by normalizing with internal control RNU6B and relative quantitation values were plotted.

U-2 OS cells [2] = test: WST-1 chemosensitivity to MTX after transfection; type: cell-based; conditions: for IC50: Homo sapiens, U2OS, 72 h
HCT-116(wt-p53) cells = test: WST-1 chemosensitivity to TDX after transfection; type: cell-based; conditions: Homo sapiens, HCT-116, 72 h
Experimental: HCT-116 (wt-p53) cells were plated in 96-well plates at 1×10^3 cells/well in triplicate and were transfected with miR-215 precursor, non-specific control miRNA, or siRNA against TS or DHFR in 100 μl of medium. […] To measure viable cells, 10 μl of WST-1 (Roche Applied Science) was added to each well. After 2 hours incubation, absorbance was measured at 450 and 630 nm respectively (n=3). Non-specific control miRNA alone was used as a negative control, and siRNAs incubation with TDX or MTX were used as the positive controls.

HCT-116 (wt-p53) cells = test: WST-1 cell proliferation after miR-215 transfection; type: cell-based, human; conditions: day 5, vs non-specific miRNA control
Experimental: (§1) miR-215 inhibits cell proliferation of HCT-116(wt-p53) and U-2 OS cells.
(§2) Cell proliferation assays were performed on the transduced cells. HCT-116 (wt-p53), HCT-116 (null-p53), U-2 OS, and MG63 cells were plated in 96-well plates in triplicate at 1 10^3 cells/well after transfection with miR-215 precursor or non-specific control miRNA. Cells were cultured for 24, 48, 72, 96 h. The absorbance at 450 and 630 nm was measured after incubation with 10 μl of WST-1 for 2 h.

U-2 OS cells [3] = test: as above; type: cell-based; conditions: day 5, vs non-specific miRNA control
Experimental: as §1, §2

U-2 OS cells [4] = test: cell cycle analysis by flow cytometry; type: cell-based
Experimental: miR-215 induces G2-arrest in HCT-116 (wt-p53) and U-2 OS cells. To investigate the mechanism by which miR-215 suppressed cell proliferation in HCT-116 (wt-p53) and U-2 OS cells, the impact of miR-215 on cell cycle control was analyzed by flow cytometry at 36 h after transfection. HCT-116 (wt-p53), HCT-116 (null-p53), U-2 OS and MG63 cells were transfected with miR-215 precursor and the non-specific control miRNA described as above. At 36 h after transfection, cells were harvested and resuspended at 0.5-1 10^5 cells/ml in modified Krishan buffer containing 0.1% sodium citrate and 0.3% NP-40 and kept at 4° C. Before analysis by flow cytometry, cells were treated with 0.02 mg/ml RNase H and stained with 0.05 mg/ml propidium iodide (Sigma).

p53 = test: western immunoblot of p53 in HCT-116 (wt-p53) and U-2 OS cells; type: cell-based; conditions: both HCT-116 (wt-p53) and U-2 OS cells, 48 h after transfection
From the text: (§3) miR-215 increases the expression of cell cycle control genes p53 and p21. p53 and p21, a downstream target of the p53 pathway of growth control, are reported to block cells at G2 checkpoint mainly through inhibiting activity of Cdc2, the cyclin-dependent kinase that normally drives cells into mitosis, which is the ultimate target of pathways that mediate rapid arrest in G2 in response to DNA damage. To further analyze the mechanism of cell proliferation inhibition by miR-215, we transfected miR-215 precursor into HCT-116 (wt-p53) and U-2 OS cells, and evaluated the levels of cell cycle control genes p53 and p21 by western immunoblot analysis.

p21 = test: western immunoblot of p21 in HCT-116 (wt-p53) and U-2 OS cells; type: cell-based; conditions: both HCT-116 (wt-p53) and U-2 OS cells, 48 h after transfection
From the text: as §3

TS = test: western immunoblot of TS protein after transfection; type: cell-based; conditions: 48 hours after transfection
Experimental: At 48 h after transfection with miR-215, miR-192 precursors or non-specific control miRNA, the cells were scraped and lysed in RIPA buffer (Sigma). Equal amounts of proteins were resolved by SDS-PAGE on 12% gels by the method of Laemmli, and transferred to polyvinylidene fluoride membranes (BIO-RAD Laboratories). The membranes were then blocked by 5% nonfat milk in TBS-T (Tris-buffered saline and 0.5% Tween-20) at room temperature for 1 h. The primary antibodies used for the analysis included mouse anti-TS mAb (1:400, Millipore), mouse anti-DHFR mAb (1:250, BD Bioscience), mouse anti-p53 mAb (1:1000, DO-1), mouse anti-p21 mAb (1:1000, F-5), and mouse anti-α-tubulin mAb (1:1000, TU-02) purchased from Santa Cruz Biotechnology. Horseradish peroxidase—conjugated antibodies against mouse (1:1000, Santa Cruz Biotechnology) were used as the secondary antibodies. Protein bands were visualized with a chemiluminescence detection system using the Super Signal substrate (BIO-RAD).
At 48 hours after transfection, proteins were extracted from miR-215-transfected cells and from control cells and changes in TS or DHFR protein levels were determined by western immunoblot analysis (FIG. 14).

TS mRNA = test: real time qRT-PCR of TS mRNA; type: cell-based; conditions: U-2 OS cells
Experimental: (§6) Expression levels of TS or DHFR mRNA were analyzed using real time qRT-PCR analysis (FIG. 15).

DHFR mRNA = test: real time qRT-PCR of DHFR mRNA; type: cell-based; conditions: U-2 OS cells
Experimental: as §6

3′UTR of DHFR = test: pMIR-REPORT dual-luciferase reporter assay; type: cell-based, human; conditions: HCT-116 (wt-p53), 30 hours after transfection, compared to the vector alone
From the text: (§4) To confirm whether miR-215 directly targets TS or DHFR, plasmids were constructed containing the fragments of the 3′UTR of TS or DHFR in the downstream region of firefly luciferase. The pMIR-REPORT Luciferase miRNA Expression Reporter Vector (Ambion) was used to determine the targets of miR-215. Double stranded DNA oligonucleotides containing the miR-215 binding sequence (wt-miR-215) or mismatch sequence (mut-miR-215) in 3′UTR of TS or DHFR mRNA and the HindIII and SpeI restriction site overhangs were synthesized (IDT, Coralville, Iowa) and annealed and cloned downstream of firefly luciferase in the pMIR-REPORT plasmid. The sequences of these synthesized oligonucleotides are provided below. The 3′UTR of TS includes two miR-215 binding sites: one is located at 84-104 bp, one is located at 216-236 bp.
(§5) The constructs were transiently transfected into HCT-116 (wt-p53) cells alone (control) or together with miR-215 precursor. […] Thirty hours after transfection, cells were lysated and luciferase activity was measured by the dual-luciferase reporter assay system (Promega, Madison, Wis.) according to the instructions. […]

3′UTR of TS = test: pMIR-REPORT dual-luciferase reporter assay; type: cell-based, human; conditions: HCT-116 (wt-p53), 30 hours after transfection, compared to the vector alone
From the text: as §4, §5

In the case of `O=c1[nH]cc(F)c(=O)[nH]1` [5-fluorouracil], the “activation of luciferase expression from miR-192 promoter p53 binding site” value [1] is reported as “further enhanced”.

With `CN(Cc1cnc2nc(N)nc(N)c2n1)c1ccc(C(=O)N[C@@H](CCC(=O)O)C(=O)O)cc1` [MTX, methotrexate] the “expression of endogenous mature miR-192” value (miR-192; HCT-116 (null-p53)) was “did not cause any change”, the “expression of endogenous mature miR-192” value (miR-192; HT-29 (mut-p53)) was “did not cause any change” and the “expression of endogenous mature miR-192” value (miR-192; cells with p53 induction (wt-p53), RNU6B normalized) was “significant increase”. It also gave an IC50 (U-2 OS cells [2]; read-out: IC50 of MTX, negative control (non-specific control miRNA), 72 hours) of 49.7 nM, an IC50 (U-2 OS cells [2]; read-out: IC50 of MTX, positive control (siRNA against DHFR), 72 hours) of 37.3 nM and a cells still alive (U-2 OS cells [2]; miR-215 transduced U-2 OS cells at 200 nM of MTX) of 83.6%.

`Cc1nc2ccc(CN(C)c3ccc(C(=O)N[C@@H](CCC(=O)O)C(=O)O)s3)cc2c(=O)[nH]1` [TDX, Ralitrexed] was tested, and the IC50 (HCT-116(wt-p53) cells; HCT-116(wt-p53) cells transfected with miR-215, 72 hours) was 98.7 nM, the IC50 (HCT-116(wt-p53) cells; negative control (non-specific control miRNA), 72 hours) was 18.6 nM and the IC50 (HCT-116(wt-p53) cells; positive control (siRNA against TS), 72 hours) was 8.5 nM.

B1: miR-215: microRNA miR-215 (SEQ ID NO:9), transfected as precursor, 72 bps hairpin stem loop processed by DICER (nucleic acid)
chain: AUCAUUCAGAAAUGGUAUACAGGAAAAUGACCUAUGAAUUGACAGACAAUAUAGCUGAGUUUGUCUGUCAUUUCUUUAGGCCAAUAUUCUGUAUGACUGUGCUACUUCAA
modifications: delivered as precursor hairpin, further chemistry not given here
B1 was tested, and the “reduction in cell proliferation (OD)” value (HCT-116 (wt-p53) cells) was “approximately 40%”, the “reduction in cell proliferation (OD)” value (U-2 OS cells [3]) was ~58% and the G2/S ratio (U-2 OS cells [4]; 36 h after transfection (control 0.35)) was 0.72. For the same molecule, the “proportion of cells in the G2-phase” value (U-2 OS cells [4]; 36 h after transfection (control 18.50%)) was 29.69%, the “proportion of cells in the S-phase” value (U-2 OS cells [4]; 36 h after transfection (control 52.08%)) was 41.24% and the “increase of G2/S ratio” value (U-2 OS cells [4]; vs control) was > 2 fold. For the same molecule, the p53 protein level (p53) was “significant increase”, the p21 protein level (p21) was “significant increase” and the TS protein levels (TS) was “clearly decreases”. For the same molecule, the “TS mRNA expression” value (TS mRNA) was “no reduction”, the “DHFR mRNA expression” value (DHFR mRNA) was “no reduction” and the “luciferase activity, DHFR 3′UTR construct” value (3′UTR of DHFR) was “significant decrease”. For the same molecule, the “luciferase activity, TS 3′UTR construct” value (3′UTR of TS) was “significant decrease”.
